Read-outs that look alike come from different tables or passages of the source. Square brackets hold non-standard residues; d marks the D form. Cha = N[C@@H](CC1CCCCC1)C(=O)O
Legend:
[1] = target: T1, Escherichia coli sliding clamp (bacterial processivity factor, dnaN gene product) (Escherichia coli), P0A988; assay: kinITC
[2] = target: T1, Escherichia coli sliding clamp …; assay: ITC, 25 C
[3] = target: Acinetobacter baumannii sliding clamp (Acinetobacter baumannii); assay: ITC, 25 C
[4] = target: T1, Escherichia coli sliding clamp …; assay: ITC, 25 C; remark: listed apart in the source
[5] = target: T2, Pseudomonas aeruginosa sliding clamp (Pseudomonas aeruginosa), Q9I7C4; assay: ITC, 25 C
T2 chain: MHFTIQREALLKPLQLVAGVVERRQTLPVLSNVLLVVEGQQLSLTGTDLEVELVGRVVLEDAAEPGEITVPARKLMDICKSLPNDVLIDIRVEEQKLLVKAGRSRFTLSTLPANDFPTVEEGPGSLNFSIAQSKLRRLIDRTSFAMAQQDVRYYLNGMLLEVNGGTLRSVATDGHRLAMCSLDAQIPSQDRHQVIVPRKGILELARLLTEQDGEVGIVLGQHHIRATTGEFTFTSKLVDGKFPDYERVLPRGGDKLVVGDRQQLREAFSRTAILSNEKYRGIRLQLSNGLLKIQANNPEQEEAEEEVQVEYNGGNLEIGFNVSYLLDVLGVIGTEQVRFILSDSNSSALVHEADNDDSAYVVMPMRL

## Ac-Q[Cha]DLF-OH [Ac-Gln-Cha-Asp-Leu-Phe-OH (peptide 1)]
[1]
  koff: 0.0074 s⁻¹
  kon: 40000 M⁻¹ s⁻¹
[2]
  Kd: 194 nM
  ΔG: -9.2 kcal/mol
[3]
  Kd: 655 nM
[4]
  Kd: 170 nM
[5]
  Kd: 600 nM
